Measurements: the supplement of paper PMC10567573
± gives the standard deviation.

Assay: protein stability index of a GFP-peptide fusion (GPS, HEK-293T) (PSI 1-6); higher = more stable
[1] = treatment: DMSO, c terminus: a fixed tail appended
[2] = treatment: MLN4924 1 uM, 8 h, c terminus: a fixed tail appended
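Further: 24-mer peptide tiles fused after GFP, lentivirally expressed, FACS-sorted into six equal bins by GFP/DsRed ratio, decoded by Illumina sequencing, PSI is the read-weighted mean bin number.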

Sequence | protein stability index [1] | protein stability index [2] | protein stability index (treatment: DMSO, c terminus: native) | protein stability index (treatment: MLN4924 1 uM, 8 h, c terminus: native)
IGDSRPPSFHPHAGGGSQENLDND [DVL3] | 5.56 ± 0.18 | 5.41 ± 0.1 | – | –
IGLRQHHCRKCGKAVCGKCSSKRS [WDFY2] | 4.08 ± 0.17 | 4.15 ± 0.26 | – | –
IHKASATIIEPAGESDNPLRFTSG [INTS4] | 4.03 ± 0.33 | 4.15 ± 0.25 | – | –
IHLSAPCIYSEVMEALDLQPGLSF [PCMTD2] | 2.23 ± 0.23 | 1.96 ± 0.41 | – | –
IIRNVGKYREAARLEINVLKKIKE [CLK3] | 2.68 ± 0.51 | 2.33 ± 0.27 | – | –
IKNDKYGPWLEWEIMLQYCFPRLD [PRIM1] | – | 3 ± 1 | – | –
IKPNEILPPEKGREVAKELGIPYY [RHOBTB2] | 3.73 ± 0.14 | 3.79 ± 0.12 | – | –
IKQDINSLNKQIAQLQDFVRAKGS [STX5] | 3.25 ± 0.12 | 3.38 ± 0.28 | – | –
ILGVIGLFTIPLLYRQHQAQIDQY [RTN2] | 3.28 ± 0.71 | 3.1 ± 0.84 | – | –
ILLVGYPPFWDEDQHRLYKQIKAG [CAMK2A] | 2.29 ± 0.32 | 2.24 ± 0.19 | – | –
ILNSVEKYDPHTGHWTNVTPMATK [KLHL12] | 3.15 ± 0.29 | 3.43 ± 0.44 | – | –
ILRCWKCRKCIASSGCFMEYLENQ [RNF180] | 2.36 ± 0.4 | 2.43 ± 0.46 | – | –
IMVGFILYCSTPTRTAEPAESSVP [SLC35F2] | 3.15 ± 0.68 | 2.62 ± 1 | – | –
IPGLPGLRGLPGERGTPGLPGPKG [SCARA5] | 4.34 ± 0.41 | 4.42 ± 0.22 | – | –
IPHTHLLATLDPLALDREPPPHLL [WDR88] | 3.23 ± 0.12 | 3.26 ± 0.14 | – | –
IQDGTIHLYIYSIHSIPKGTEITI [KMT2E] | 2.48 ± 0.43 | 3.24 ± 0.15 | – | –
IQQELIKQEQSIISEYEKSLQFDE [RPAIN] | 4.64 ± 0.12 | 4.67 ± 0.079 | – | –
IQSKLGIVSLLLGTIHALIFAWNK [STEAP1] | 2.35 ± 0.31 | 2.22 ± 0.31 | – | –
IRDQMQQQLNDYEQLLDVKLALDM [LMNB1] | 3.4 ± 0.25 | 3.48 ± 0.36 | – | –
IRLMQRCWQGDPRVRPTFQEITSE [RIPK4] | 2.798 ± 0.002 | 2.78 ± 0.45 | – | –
ISEEIQMSTKESDFLCLLGVSYTF [MIA2] | 2.4 ± 0.45 | 2.76 ± 0.92 | – | –
ISHWHPNITINIVDDHTPWVKGSV [CLPTM1] | 2.37 ± 0.22 | 2.03 ± 0.34 | – | –

Sequence | protein stability index [1] | protein stability index [2] | protein stability index (treatment: DMSO, c terminus: native) | protein stability index (treatment: MLN4924 1 uM, 8 h, c terminus: native)
IVIWGVLTQKKPFADEKNILHIMV [RIPK4] | 3.25 ± 0.88 | 2.92 ± 0.67 | – | –
IVPNSNGVITTTPTPPGQYFYPRG [JUNB] | 3.16 ± 0.27 | 3.35 ± 0.2 | – | –
KAALAALCPGDLIQAINGESTELM [PDLIM4] | 3.495 ± 0.025 | 3.77 ± 0.21 | – | –
KAKANGITMYAVGVGKAIEEELQE [MATN2] | 3.83 ± 0.33 | 4.12 ± 0.32 | – | –
KAKKNKDKYVGVSSDSVGGFRYSE [CLINT1] | 4.53 ± 0.19 | 4.58 ± 0.24 | – | –
KARDWFQGHLRRLRSRYSVASFKF [MYORG] | 2.21 ± 0.33 | 2.15 ± 0.29 | – | –
KAVLENALRNFACLTTGDVIAINY [UFD1] | 2.94 ± 1.7 | 2.3 ± 1 | – | –
KCEQPFFWNIKQMWDTKTLGLRQH [WDFY1] | 2.12 ± 0.17 | 2.38 ± 0.27 | – | –
KCGDLECEALINRVSAMRDYRGPD [MIA2] | 3.25 ± 0.63 | 3.21 ± 0.076 | – | –
KDGVADSTVISSMPCLLMELRRDS [C18orf25] | 3.25 ± 0.15 | 3.42 ± 0.35 | – | –
KEMTQKLEALHLEALCEEDLLLWI [DENND6A] | 2.23 ± 0.28 | 2.26 ± 0.32 | – | –
KETEERTDGERVAEVAPEERENVA [SDE2] | 5.64 ± 0.17 | 5.33 ± 0.42 | – | –
KGDRGLPLEGSAKGKVQAELSQPL [RBBP5] | 4.82 ± 0.33 | 4.75 ± 0.11 | – | –
KGKKLYPVVSAVWGHCEIRMRYLN [SPSB1] | 2.23 ± 0.35 | 2.26 ± 0.23 | – | –
KIFVENLRRQKSLRLEWETQQELR [IQUB] | 2.69 ± 0.43 | 2.93 ± 0.46 | – | –
KILAEAAKLVPMGFTTATEFHQRR [RAD51] | 2.56 ± 0.23 | 2.7 ± 0.52 | – | –
KIPGTGALASAAAAVSGSKAKAE [RTN2] | – | – | 5.34 ± 0.14 | 5.32 ± 0.14
KIQLSDSEAKSHSSADDASAWSNI [FAN1] | 4.757 ± 0.032 | 4.74 ± 0.11 | – | –
KISYIGLMTQSSLETHHYVDCGGN [TMEM106C] | 2.48 ± 0.24 | 2.45 ± 0.24 | – | –
KKIEFGVVYSCVEGKMYTARKGKG [IMPA1] | 3.06 ± 0.075 | 3.24 ± 0.12 | – | –
KKQAGRPKGSKGKEKDSPFKPKLY [RBBP5] | 3.74 ± 0.26 | 3.91 ± 0.28 | – | –
KKTSITQQPSKHRTDEELQPPTTT [PLK2] | 5.27 ± 0.2 | 5.26 ± 0.16 | – | –

Sequence | protein stability index [1] | protein stability index [2] | protein stability index (treatment: DMSO, c terminus: native) | protein stability index (treatment: MLN4924 1 uM, 8 h, c terminus: native)
KKTWKILTIMPYNSAHHCVVEVEN [KLHL14] | 2.27 ± 0.37 | 2.64 ± 0.26 | – | –
KLATCYFFTVEFGLCKQDGQLRVF [TPH1] | 2.59 ± 0.47 | 2.97 ± 0.56 | – | –
KLCTAHMCSTLEHNCAHFCINIPG [MATN2] | 2.22 ± 0.38 | 2.22 ± 0.29 | – | –
KLIDRLEKKDLKLEPPEEEIIEGN [NECAB1] | 4.88 ± 0.32 | 4.8 ± 0.19 | – | –
KLKPHEEPLRSEILSGKFTILNVR [PTPN9] | 3.01 ± 0.14 | 2.96 ± 0.11 | – | –
KLPLPVTIKSHLKSFSMANGMNAV [RAB40C] | 2.36 ± 0.18 | 2.46 ± 0.093 | – | –
KLQVSQQEDITKSLLVTELGSSRT [IMPA1] | 4.18 ± 0.28 | 4.28 ± 0.25 | – | –
KNMDQVAPVANSYRGTLKRQPAFD [ETS2] | 3.99 ± 0.41 | 4.15 ± 0.21 | – | –
KPGKGADLSKPPCRKAKEIRKERK [ATE1] | 4.65 ± 0.44 | 5.04 ± 0.3 | – | –
KPGLRRSPIKKVRKSLALDIVDED [MYBL2] | 4.84 ± 0.5 | 4.92 ± 0.48 | – | –
KPYNCLQCLDKTNESALVKEKELS [MTUS2] | 4.74 ± 0.14 | 4.59 ± 0.23 | – | –
KRTYWPDLDAKIREALVLRSVRVR [PLD5] | 2.4 ± 0.36 | 2.77 ± 0.38 | – | –
KRYAGREEHWVGLKKEPGHPWKWS [CD69] | 2.76 ± 0.22 | 2.83 ± 0.2 | – | –
KSPSSPQAAFTQQGMEGIKVFLHE [TBX5] | 3.58 ± 0.23 | 3.68 ± 0.26 | – | –
KSSGRFLWIKFFAAGELESMGFSA [NETO1] | 2.59 ± 0.54 | 2.64 ± 0.73 | – | –
KSVQGTGLAFIAFTEAMTHFPASP [SLC6A17] | 2.19 ± 0.49 | 2.22 ± 0.12 | – | –
KTRRKTSARDASPTPSTDAEYPAN [NCK2] | 5.31 ± 0.21 | 5.45 ± 0.17 | – | –
KVYPVQEALAVLEPYARLPPHKHV [TRIB3] | 3.02 ± 0.26 | 3.09 ± 0.15 | – | –
KYDPKTQEWSFLPSITRKRRYVAS [KLHL12] | 3.15 ± 0.4 | 2.93 ± 0.27 | – | –
KYPSHSFIGEESVAAGEKSILTDN [IMPA1] | 4.66 ± 0.24 | 4.75 ± 0.1 | – | –
LALYVLFLADEEFDVVVCDQVSAC [ALG2] | 2.92 ± 0.44 | 2.59 ± 0.59 | – | –
